# ± gives the uncertainty stated by the source.
# Experiment: amyloid nucleation score (Sup35N fusion, yeast selection) (log enrichment); library NNK2; higher = more nucleation; inactive = no reads after selection
# Method in brief: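 On medium lacking adenine and uracil, psi-negative yeast expressing peptides of 20 random codons fused to Sup35N were grown 7 days at 30°C after a 24-hour induction with 100 μM copper sulfate. Illumina sequencing of input and output plasmid inserts gave the reads, and sequences under 100 input reads were excluded. The nucleation score is the DiMSum log enrichment of output over input reads, centred on the mode score of non-aggregating sequences.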
row,Substance,amyloid nucleation score
1,MASAVNCESCISSGRVRFSG,0.547 ± 0.81
2,FPQWFHFGCNLARSL,-0.613 ± 0.46
3,TMHCSSLPQTSLVGTNHNAD,-0.327 ± 0.28
4,PSWDDFSSPEVS,-0.524 ± 0.39
5,WQRRIGKFCDKQWSFQMMVH,-0.021 ± 0.63
6,DSGVEMYLFNSRFLRSLGND,3.65 ± 0.052
7,RSAYNY,-0.844 ± 0.4
8,LFLCYFIRT,2.17 ± 0.1
9,LFGHRFPSYL,-0.152 ± 1
10,SYVVPGFISASFYLCYCTSK,3.03 ± 0.12
11,VVSTSYIGGKKRSFCVRCGG,-0.73 ± 0.49
12,GYLVYFLCINRLACCSYLAT,7.981 ± 0.065
13,IRKYVAWNLRALTMAMIQQR,-0.959 ± 0.48
14,LALKGLLFSHNGKLEKGQV,-0.17 ± 0.79
15,HEQLW,-0.243 ± 0.48
16,MFGGQELCACLDKEGRTESG,5.09 ± 0.08
17,FQDDDDPFFCVFAYFIGFFA,-0.983 ± 1.1
18,AYYLFYTRGEFR,3.2 ± 0.09
19,AYGVIGWCWSYGERNWVHVR,0.377 ± 0.49
20,NPTWVRCYWHFWFTVNGFQY,-1.17 ± 1.1
21,VTKSYITRSVFSVGNYSETS,-0.226 ± 1.1
22,DLRIREMDLGNWSWASR,0.653 ± 0.23
23,RVIILNTNDGSVEDMYVESQ,3.98 ± 0.049
24,KTLKNEFVDMNQMIYNY,-0.489 ± 0.79

row,Substance,amyloid nucleation score
1,KMAIGLCVSTLQ,0.333 ± 0.42
2,GVTWTV,-0.104 ± 0.25
3,SSVRR,0.723 ± 0.22
4,CLNRNGKEVTWVGLIC,2.46 ± 0.069
5,RSMISRAIYWQSWSTREERT,1.86 ± 0.093
6,IDIEMIYERKPVGRIFSDT,-1.25 ± 0.42
7,THCFCGTNGWVMWGSPEGLA,0.179 ± 0.55
8,GWASHGDNDSAMTGGSVWPG,0.587 ± 0.62
9,HKETSFDGHFAICWCYTCRH,5.216 ± 0.046
10,LPMLRHTYNCFSVACIGIFC,-0.204 ± 0.3
11,RIWKWLLTQICFIRAQPLM,0.49 ± 0.31
12,VKWTTVVD,0.963 ± 0.26
13,LTILFH,4.84 ± 0.078
14,LNYRCAWWMLATMMLKRLSC,2.15 ± 0.31
15,GNLDDTSLYCLYSLVSSRCS,0.373 ± 0.29
16,TLATTGTHCVYYKNSWCKFR,-0.498 ± 0.63
17,RICVKLKVDSGVKMHQTTAG,7.952 ± 0.034
18,LLVAALSHGPGISRSVNSHP,5.91 ± 0.061
19,ILLQLSIKRSVASSWLHNGR,3.61 ± 0.046
20,HWERLIGNLM,-0.791 ± 0.36
21,SHEFSRMLEEFWDHNNVRSH,-1.1 ± 0.48
22,VNVDWCLLSVLVFNLETNPR,6.699 ± 0.032
23,RNLDFIA,3.33 ± 0.068
24,LGFHWIRNGGGLVTVNLVCV,0.747 ± 0.27

row,Substance,amyloid nucleation score
1,RKCAPMDASSRHADSYPSQS,1.24 ± 0.19
2,HLLRKDVPQAWT,3.29 ± 0.11
3,FVSEINVTSGD,0.547 ± 0.42
4,FRTQAF,1.16 ± 0.47
5,SKQTITFRSVQEDSWRRFGH,5.49 ± 0.076
6,VRLTMQYGHVYPGCSLLPYV,4.75 ± 0.049
7,VISHRKPFE,-0.283 ± 1
8,FYWRFTFRLVCRFCYTRHLK,-0.522 ± 0.35
9,VFDAKTFGGDTVFVAAEAHS,-0.669 ± 1
10,SQGIVSDAANYMHILSAGYD,0.044 ± 0.55
11,VFKFMNMTYEYRAGKGITVH,inactive
12,RRHSNRICLQLWNHLGKRCR,0.587 ± 0.29
13,LLMMRGSRVSNS,-0.763 ± 0.39
14,DESSSRDETCGVFTHLVCVV,-0.249 ± 0.28
15,VSHILINVSRGLRGS,-0.261 ± 0.8
16,INQKDRRGNPYY,-0.042 ± 0.79
17,WQCKLPSNYGFGTK,0.11 ± 0.77
18,WRCDLSNPTFAMYVDAVWAS,1.16 ± 0.18
19,IFEAVVRVG,inactive
20,YAFSMDRWVDLMLFQRV,4.96 ± 0.092
21,LKDVGPYQRVRRGTVRYA,0.756 ± 0.4
22,MSKDTVMPWERIKEVLHCLG,0.342 ± 0.3
23,LRSEFRFIYLRLTWKVR,inactive
